Broadly, the Kd is a measure of binding affinity in units of concentration. High values mean lower affinity, low ones higher affinity. Usually koff stands for the first-order rate constant of dissociation. The kon is the rate constant with which the complex forms.

Data on one molecule can be found in patent publication US20240101710A1 (ALLOGENE THERAPEUTICS, published 2024).

For the assay, the target named is T1, anti-BCMA antibody clone C29 Fab.
T1 construct: also called anti-BCMA clone C29 Fab
T1 sequence (VH, as listed by the source, chain 1 of 2): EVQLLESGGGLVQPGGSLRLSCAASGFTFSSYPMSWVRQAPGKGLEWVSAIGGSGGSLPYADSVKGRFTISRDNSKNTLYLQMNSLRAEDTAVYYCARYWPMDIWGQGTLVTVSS
T1 sequence (VL, as listed by the source, chain 2 of 2): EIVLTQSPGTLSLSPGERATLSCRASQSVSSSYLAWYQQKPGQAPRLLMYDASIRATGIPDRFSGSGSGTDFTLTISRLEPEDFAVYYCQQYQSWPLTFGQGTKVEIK
The experiment in a line: Biacore (SPR), 25 C, HEPES buffer pH 7.4. Here is the method:
E10 purified from the hybridoma cell line supernatant was analyzed by Biacore assay against the antigen anti-BCMA clone C29 Fab. The Biacore assay was run, for example, in 10 mM HEPES buffer, with 150 mM NaCl and 0.05% Tween20 at pH 7.4 and 1 mg/mL BSA at 25° C.
Background: SPR reads the build-up and loss of mass on a sensor chip optically.

B1: anti-idiotypic antibody clone 87B12.E10 (E10), purified from hybridoma cell line (antibody, V domains shown)
VH: QVQLQQSGPGLVQPSQSLSIPCTVSGFSLTSYDVHWVRQSPGKGLEWLGVIWSGGSTGYNAIFRSRLSINKDNSKSQVFFKMTSLQPDDTAIYYCANFSPWYLPSYWDQGTLVTVSA
VL: QIVLTQSPAIMSASPGEKVTITCSASSNVSYMHWFQQKPGTSPKLWIYSTSNLASGVPARFSGSGSGTSYSLTISRMEAEDAATYYCQQRSSYPLTFGAGTKLELK
notes: Mouse (Balb/c) hybridoma antibody; also called E10 purified Ab from hybridoma cell line
The molecule B1 gave a dissociation constant (Kd) of 0.11 nM, a koff of 0.000157 s⁻¹, a kon of 1.48e+06 M⁻¹ s⁻¹ and a t1/2 of 1.23 h.
